# Assay results reported in article PMC8392543.
# Changes are numbered by the printed parent chain. In names and notes the source's numbering stands.
# B1: EsOgl (Exiguobacterium artemiae 255-15; A109P/E176P/K441P/S130P) (protein)
# chain: MERKWWHDSVVYQIYPRSFNDSNGDGIGDLVGIIEKLDYLKELGIDVIWLSPVYDSPNDDNGYDIRDYEAIMSEFGTMADFDRLLDQAHERGIKIVMDLVINHSSDEHPWFAESRKSKDNPYRDYYIWRPANEDGTLPNNWGSIFSGPAWELDEATNEYYLHLFSKKQPDLNWENPKLRQEVYQMITRWLDRGIDGFRMDVINLISKTPGLPDATVPPGALYGDGGQHYINGPRIHEFLKEMNDASFGNYDVLTVGEMPGATTDDAILYTDPERKEVNMVFTFEHMDLDSGPGGKWDVKPFDLQKLKENFTKWQVALHEKGWNSLYWNNHDQPRVVSRFGNDTTYRVESAKMLATLLHLLKGTPYIYQGEEIGMTNVAFESIEDYEDIEIRNMWKERTEQGASPAELLRAVHVKGRDNARTPIQWDATEHAGFTTGTPWLPVNPNYPTINVEQALEDPDSIFYYYKQLIALRHQHDVIVYGEYALILEEETDIYAYTRTYENETWYIYCSFSQEEVTVPLSHDTSDPVIGNYSESPAGSKEELVLRPYEAIVYRTTR
# B2: EsOgl (Exiguobacterium artemiae 255-15; K441P) (protein)
# chain: B1 chain with P109A, P130S, P176E
# B3: EsOgl (Exiguobacterium artemiae 255-15; E176P) (protein)
# chain: B1 chain with P109A, P130S, P441K
# B4: EsOgl (Exiguobacterium artemiae 255-15; A109P) (protein)
# chain: B1 chain with P130S, P176E, P441K
# B5: EsOgl (Exiguobacterium artemiae 255-15; S130P) (protein)
# chain: B1 chain with P109A, P176E, P441K
# B6: EsOgl (Exiguobacterium artemiae 255-15; A109P/S130P) (protein)
# chain: B1 chain with P176E, P441K
# B7: EsOgl (Exiguobacterium artemiae 255-15; A109P/E176P/S130P) (protein)
# chain: B1 chain with P441K
# B8: EsOgl (Exiguobacterium artemiae 255-15) (protein)
# chain: B1 chain with P109A, P130S, P176E, P441K
# Substrate: O=[N+]([O-])c1ccc(O[C@H]2O[C@H](CO)[C@@H](O)[C@H](O)[C@H]2O)cc1
# Test: purified protein
# Conditions: 33 mM potassium phosphate pH 7.0, 25 °C
Protein,Km [µM],kcat/Km [M⁻¹ s⁻¹]
B1,850 ± 20,167000
B2,930 ± 80,183000
B3,1970 ± 80,167000
B4,1430 ± 90,167000
B5,1660 ± 60,250000
B6,1370 ± 40,167000
B7,920 ± 70,217000
B8,1060 ± 20,233000
